Source: article PMC9723645 (Nucleic Acids Research, 2022)

target: human fatty acid amide hydrolase (FAAH), amino acids 30-579, untagged (Homo sapiens, UniProt O00519); experiment: SPR
Sequence (O00519 30-579): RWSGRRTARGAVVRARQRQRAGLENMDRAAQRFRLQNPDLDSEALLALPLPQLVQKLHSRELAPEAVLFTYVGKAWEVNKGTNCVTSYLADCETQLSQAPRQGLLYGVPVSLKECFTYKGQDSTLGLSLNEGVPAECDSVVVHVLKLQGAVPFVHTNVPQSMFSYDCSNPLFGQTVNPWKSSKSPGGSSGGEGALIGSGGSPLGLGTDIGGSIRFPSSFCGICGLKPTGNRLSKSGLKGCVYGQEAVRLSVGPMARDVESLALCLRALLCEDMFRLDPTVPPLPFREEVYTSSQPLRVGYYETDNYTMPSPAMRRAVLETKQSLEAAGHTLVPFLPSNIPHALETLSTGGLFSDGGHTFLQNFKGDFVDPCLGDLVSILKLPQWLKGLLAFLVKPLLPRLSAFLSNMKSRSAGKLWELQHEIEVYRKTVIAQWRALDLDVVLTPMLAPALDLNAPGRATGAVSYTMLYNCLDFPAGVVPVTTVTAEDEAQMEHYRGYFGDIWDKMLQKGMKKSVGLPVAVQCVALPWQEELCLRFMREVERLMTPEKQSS

| Binder | Kd [nM] | koff [s⁻¹] | kon [M⁻¹ s⁻¹] |
| --- | --- | --- | --- |
| F9 llama-VHH nanobody (affinity maturated) (VHH) VHH: QVQLVESGGGLAQAGGSLRLSCAASGRTFSDNTMAWHRQGPGKQRGLVAFITTGGRTVYTDSVKGRFIISRDNAKNTGYLQMNSLKPEDTAVYYCFVAGNWGQGTQVTVSS | 1.26 | 0.000214 | 169000 |
| OD1 llama-VHH nanobody (affinity maturated) (VHH) VHH: QVQLVESGGGLVQAGGSLRLSCAASGRTFSDNTMAWHRQGPGKQRGLVAFITTGGRTVYTDSVKGRFIISRDNAKNTGFLQMNSLKPEDTAVYYCYVAGNWGQGTQVTVSS | 0.65 | 0.000107 | 165000 |
| A3 llama-VHH nanobody (original) (VHH) VHH: QVQLVESGGGLVQAGGSLRLSCAASGRTFSDNTMAWHRQGPGKQRGLVAFITTGGRTVYTDSVKGRFIISRDNAKNTGYLQMNSLKPEDTAVYYCYVAGNWGQGTQVTVSS | 1.56 | 5.7e-05 | 36400 |

target: recombinant mouse artemin protein (Ala112-Gly224 fragment) (Mus musculus, UniProt Q9Z0L2); experiment: SPR
Sequence (Q9Z0L2 112-224): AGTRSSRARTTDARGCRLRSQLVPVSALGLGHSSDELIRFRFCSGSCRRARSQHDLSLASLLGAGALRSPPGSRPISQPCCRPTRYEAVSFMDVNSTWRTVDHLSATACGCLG

| Binder | Kd [nM] | koff [s⁻¹] | kon [M⁻¹ s⁻¹] |
| --- | --- | --- | --- |
| LU68 llama-VHH nanobody (naive) (VHH) VHH: QVQLVESGGGLVQAGGSLRLSCAASGRTLSRYAVGWFRQAPGKEREFVAVVHWNGVSTYYAEPVKGRFTISRDNAKNTVYLQMNSLKPDDTAVYYCAAATTSYVDIYTTDYDYWGQGTQVTVSS | 456 | 0.023 | 50000 |
| LM41 llama-VHH nanobody (mutated) (VHH) VHH: QVQLVESGGGLVQAGGSLRLSCAASGRTLSRYAVGWFRQAPGKEREFVAVVHWNGVSTYHAEPVKGRFTISRDNAKNTVYLQMNSLKPDDTAVYYCAAATTSYVDIYTTDYDYWGQGTQVTVSS | 111 | 0.0052 | 46000 |
| LU5 llama-VHH nanobody (naive) (VHH) VHH: QVQLVESGGGLVQAGASLRLSCAASGGTLVNSSMGWFRQAPGKERDFVATINWRGDTTWYGESVKGRFSISRDNAKNTVYLQMNSLNPEDTAVYYCAVYRTRYYTGRRMMSPDEYDVWGQGTQVTVSS | 178 | 0.0088 | 49000 |
| LM52 llama-VHH nanobody (mutated) (VHH) VHH: QVQLVESGGGLVQAGASLRLSCAASGGTLVNSSMGWFRQAPGKERDFVATINWRGDTTWYGESVKGRFSISRDNTKNMVYLQMNSLKPEDTAVYYCAVYRTRYYTGRRMMSPDEYDVWGQGTQVTVSS | 102 | 0.004 | 39000 |
